Source: article PMC5264599

B1: wild type p16-GFP [not stated] / CDK4 (Cyclin-dependent protein kinase), endogenous in 293T cells [human (endogenous in 293T)] (parent)
chain 1: MEPAAGSSMEPSADWLATAAARGRVEEVRALLEAGALPNAPNSYGRRPIQVMMMGSARVAELLLLHGAEPNCADPATLTRPVHDAAREGFLDTLVVLHRAGARLDVRDAWGRLPVDLAEELGHRDVARYLRAAAGGTRGSNHARIDAAEGPSDIPD
chain 2: MATSRYEPVAEIGVGAYGTVYKARDPHSGHFVALKSVRVPNGGGGGGGLPISTVREVALLRRLEAFEHPNVVRLMDVCATSRTDREIKVTLVFEHVDQDLRTYLDKAPPPGLPAETIKDLMRQFLRGLDFLHANCIVHRDLKPENILVTSGGTVKLADFGLARIYSYQMALTPVVVTLWYRAPEVLLQSTYATPVDMWSVGCIFAEMFRRKPLFCGNSEADQLGKIFDLIGLPPEDDWPRDVSLPRGAFPPRGPRPVQSVVPEMEESGAQLLLEMLTFNPHKRISAFRALQHSYLHKDEGNPE

Variants of: B1
Experiment: co-immunoprecipitation (anti-GFP IP, anti-CDK4 immunoblot, photodensitometry)
Details: with CDK4 (Cyclin-dependent protein kinase), scale: relative intensity
[1] = 1 mM H2O2 for 24 h, read off a plot

response [1] | response (no H2O2, read off a plot) | Variant
0.92 | 0.85 | chain 1 S140A
1.4 | 0.92 | chain 1 S8A
1.7 | 1.1 | chain 1 S152A
